# Reference: patent US20230151089A1
# Tests used:
# [1] = biological target: alpha-synuclein oligomers (UniProt P37840); assay: ELISA (Example 3), reference antibody 26F1
# [2] = biological target: alpha-synuclein oligomers (UniProt P37840); assay: ELISA, alpha-Syn oligomer coated plate, exp 2
# [3] = biological target: alpha-synuclein oligomers (UniProt P37840); assay: ELISA, alpha-Syn oligomer coated plate, exp 3
# [4] = biological target: alpha-synuclein oligomers (UniProt P37840); assay: ELISA, alpha-Syn oligomer coated plate, exp 1
# [5] = biological target: alpha-synuclein oligomers (UniProt P37840); assay: ELISA, ratio of EC50 values, reference alpha-Syn fibrils (FIG. 3)
# alpha-synuclein monomers = alpha-synuclein monomers (UniProt P37840); assay: ELISA on antigen-coated plate, antibody titrated in tenfold steps, OD 450-630 nm
# [6] = biological target: alpha-synuclein oligomers (UniProt P37840); assay: as above
# alpha-synuclein fibrils = alpha-synuclein fibrils (UniProt P37840); assay: as above
fold weaker binding affinity to alpha-Syn oligomers than 26F1 [1] [fold],EC50 [2] [nM],EC50 [3] [nM],EC50 [4] [nM],binding affinity ratio alpha-Syn oligomers:alpha-Syn fibrils [5],EC50 (read off the curve) (alpha-synuclein monomers) [pM],EC50 (read off the curve) [6] [pM],EC50 (read off the curve) (alpha-synuclein fibrils) [pM],Substance
> 2,0.6,0.6,0.2,,,,,5G4 antibody
,0.06,0.14,0.06,1,20,20,20,MJFR14 antibody
